Experimental data from patent US9869668B2, “PDGF as a biomarker for predicting resistance or effect of c-Met targeting drugs” (SAMSUNG ELECTRONICS CO., LTD., priority 2014, dated 2018).

B1: SAIT301: anti-c-Met antibody: huAbF46-H4-A1 heavy chain variable region, human IgG2 hinge and constant region, kappa light chain (antibody)
heavy: EVQLVESGGGLVQPGGSLRLSCAASGFTFTDYYMSWVRQAPGKGLEWLGFIRNKANGYTTEYSASVKGRFTISRDNSKNTLYLQMNSLRAEDTAVYYCARDNWFAYWGQGTLVTVSSASTKGPSVFPLAPCSRSTSESTAALGCLVKDYFPEPVTVSWNSGALTSGVHTFPAVLQSSGLYSLSSVVTVPSSNFGTQTYTCNVDHKPSNTKVDKTVERKCCVECPPCPAPPVAGPSVFLFPPKPKDTLMISRTPEVTCVVVDVSHEDPEVQFNWYVDGVEVHNAKTKPREEQFNSTFRVVSVLTVVHQDWLNGKEYKCKVSNKGLPAPIEKTISKTKGQPREPQVYTLPPSREEMTKNQVSLTCLVKGFYPSDIAVEWESNGQPENNYKTTPPMLDSDGSFFLYSKLTVDKSRWQQGNVFSCSVMHEALHNHYTQKSLSLSPGK
light: DIQMTQSPSSLSASVGDRVTITCKSSQSLLASGNQNNYLAWYQQKPGKAPKMLIIWASTRVSGVPSRFSGSGSGTDFTLTISSLQPEDFATYYCQQSYSRPYTFGQGTKVEIKRTVAAPSVFIFPPSDEQLKSGTASVVCLLNNFYPREAKVQWKVDNALQSGNSQESVTEQDSKDSTYSLSSTLTLSKADYEKHKVYACEVTHQGLSSPVTKSFNRGEC

Assays:
Format in all cases: cell-based
[1] = tested on: EBC1-SR#6 cell line (compared with EBC1 parental cell line); assay: EZ-Cytox cell viability assay, 72 hours after treatment; details: EBC1-SR#6 vs EBC1 parental cell line, sole treatment, FIG. 2/FIG. 3
Method: To examine whether the quantitative increase of PDGF protein contributes to obtaining resistance in anti-c-Met antibody resistance acquired cell line, EBC1 and EBC1-SR#6 cell lines were treated with PDGFR (PDGF Receptor) TKI (tyrosine kinase inhibitor), then the changes of cell growth inhibition were measured using EZ-Cytox Cell viability assay kit (DaeiLab Service, Seoul, Korea).
For this, each of EBC1 cells and EBC1-SR#6 cells were seeded on 96-well plate at the amount of 5000 (5×10^3) cells. […] Seventy two hours after the treatment, the number of the cells was measured by EZ-Cytox Cell viability assay kit.

EBC1-SR#6 cell lines = assay: CellTiter Glo assay confirming acquired resistance to SAIT301; details: resistance-acquired clones; 0-2 ug/ml; 72 hours after the antibody treatment
Method: EBC1 (JCRB 0820) cell lines was treated with SAIT301 for at least 2 months, with increasing the concentration of treated antibody. The concentration of SAIT301 was increased from 1 ug/ml to 10 ug/ml until a resistance is induced. To confirm the acquisition of a resistance to SAIT301, the prepared clones were treated with SAIT301 at the concentration of 0 ug/ml, 0.016 ug/ml, 0.08 ug/ml, 0.4 ug/ml, or 2 ug/ml, and 72 hours after the antibody treatment, the number of the living cells was counted by CellTiter Glo assay (Promega, G7573).
The obtained SAIT301 resistance acquired cell lines were named EBC1-SR#6.

EBC1 parent cells = assay: Responsiveness of parent cells to SAIT301 before inducing resistance
Method: To examine the quantitative change of PDGF when a resistance to an anti-c-Met antibody is induced, SAIT301 resistance acquired EBC1-SR#6 cell lines were prepared by repeatedly treating EBC1 (JCRB 0820) cells with SAIT301. EBC1 parent cells were all responsive to SAIT301, before inducing SAIT301 resistance. The SAIT301 resistance acquired EBC1-SR#6 cell lines were prepared as follows: […]

| Molecule | chemosensitivity of EBC1-SR#6 cell line compared with EBC1 [1] | effect of antibody on number of living cells (EBC1-SR#6 cell lines) | responsiveness of cells to antibody (EBC1 parent cells) |
| --- | --- | --- | --- |
| CCN(CC)CCCCNc1ncc2cc(-c3cc(OC)cc(OC)c3)c(NC(=O)NC(C)(C)C)nc2n1 [PD173074] | not changed markedly | – | – |
| B1 | – | no effect | responsive |
